{"source": "paper PMC13623948", "key": {"[1]": {"target": "human UBA6 (full-length, amino acid residues 1-1052) (human) (UniProt A0AVT1)", "sequence (A0AVT1 whole entry, the tested form may be a part)": "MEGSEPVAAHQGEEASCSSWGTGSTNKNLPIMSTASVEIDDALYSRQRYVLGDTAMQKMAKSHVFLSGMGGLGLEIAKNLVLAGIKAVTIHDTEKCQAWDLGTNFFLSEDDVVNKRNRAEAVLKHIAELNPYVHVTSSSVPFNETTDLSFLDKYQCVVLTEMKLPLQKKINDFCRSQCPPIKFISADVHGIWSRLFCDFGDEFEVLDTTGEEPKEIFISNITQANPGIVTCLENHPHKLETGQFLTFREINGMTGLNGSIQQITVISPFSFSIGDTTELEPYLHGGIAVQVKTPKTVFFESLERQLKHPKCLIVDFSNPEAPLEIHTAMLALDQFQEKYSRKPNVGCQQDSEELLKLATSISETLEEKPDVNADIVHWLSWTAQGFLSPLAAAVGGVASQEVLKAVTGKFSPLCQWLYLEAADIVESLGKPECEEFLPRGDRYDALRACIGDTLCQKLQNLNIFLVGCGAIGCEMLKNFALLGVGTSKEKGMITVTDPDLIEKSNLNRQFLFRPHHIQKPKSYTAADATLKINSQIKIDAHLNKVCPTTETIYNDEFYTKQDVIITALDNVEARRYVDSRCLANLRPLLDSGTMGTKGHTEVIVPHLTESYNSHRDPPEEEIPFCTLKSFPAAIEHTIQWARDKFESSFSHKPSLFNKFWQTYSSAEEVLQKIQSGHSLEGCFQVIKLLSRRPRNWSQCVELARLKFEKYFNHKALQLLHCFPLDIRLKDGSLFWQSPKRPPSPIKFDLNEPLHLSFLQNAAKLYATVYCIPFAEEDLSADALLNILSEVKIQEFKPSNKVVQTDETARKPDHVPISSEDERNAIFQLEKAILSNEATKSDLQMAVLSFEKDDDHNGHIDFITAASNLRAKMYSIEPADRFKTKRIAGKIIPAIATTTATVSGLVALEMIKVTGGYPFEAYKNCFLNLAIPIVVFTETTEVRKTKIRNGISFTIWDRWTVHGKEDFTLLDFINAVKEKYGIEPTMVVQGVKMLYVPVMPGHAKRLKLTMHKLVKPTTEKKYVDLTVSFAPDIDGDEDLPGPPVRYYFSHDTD"}, "human UBA1 (human)": {"target": "human UBA1 (human) (UniProt P22314)", "experiment": "BLI; His-tagged E1 ligands on Anti-Penta-His (His1K) biosensors; analyte BIRC6^UBC or BIRC6^(UBCΔinsertion loop) at 40-3240 nM; 50 mM HEPES, pH 7.4, 150 mM NaCl, 0.05% Tween-20, 10 mM imidazole; 25 °C; steady-state 1:1 fit"}, "[2]": {"target": "oxyester-linked UBA6-Ub conjugate (UBA6 C625S charged with ubiquitin) (human) (UniProt A0AVT1)", "experiment": "BLI; His-tagged E1 ligands on Anti-Penta-His (His1K) biosensors; analyte BIRC6^UBC or BIRC6^(UBCΔinsertion loop) at 40-3240 nM; 50 mM HEPES, pH 7.4, 150 mM NaCl, 0.05% Tween-20, 10 mM imidazole; 25 °C; steady-state 1:1 fit"}}, "data": [{"substance": "BIRC6^UBC C-terminal extension mutant (R4745A-R4799A-T4789A) (from UniProt Q9NR09 4520-4857) (domain or fragment)", "values": [{"measurement": "reduction of Ub charging of BIRC6^UBC by UBA6 relative to WT (E1–E2 transthioesterification assay, 2 min)", "setting": "[1]", "result": 50, "unit": "%"}]}, {"substance": "BIRC6^UBC N-helix mutant (R4576A-Q4580A-V4583G) (from UniProt Q9NR09 4520-4857) (domain or fragment)", "values": [{"measurement": "reduction of Ub charging of BIRC6^UBC by UBA6 relative to WT (E1–E2 transthioesterification assay, 2 min)", "setting": "[1]", "result": 25, "unit": "%"}]}, {"substance": "BIRC6^UBC N-terminal extension mutant (A4569R) (from UniProt Q9NR09 4520-4857)", "values": [{"measurement": "reduction of Ub charging of BIRC6^UBC by UBA6 relative to WT (E1–E2 transthioesterification assay, 2 min)", "setting": "[1]", "result": 25, "unit": "%"}]}, {"substance": "BIRC6^UBC Y4711G (from UniProt Q9NR09 4520-4857) (domain or fragment)", "values": [{"measurement": "reduction of BIRC6^UBC~Ub formation by UBA6 relative to WT (E1–E2 transthioesterification assay, 2 min)", "setting": "[1]", "result": 60, "unit": "%"}]}, {"substance": "BIRC6^UBC with the insertion loop deleted (from UniProt Q9NR09 4520-4857) (domain or fragment)", "values": [{"measurement": "Kd", "setting": "human UBA1 (human)", "result": 1470, "unit": "nM"}]}, {"substance": "BIRC6^UBC β4 loop mutant (Q4634A) (from UniProt Q9NR09 4520-4857) (domain or fragment)", "values": [{"measurement": "reduction of Ub charging of BIRC6^UBC by UBA6 relative to WT (E1–E2 transthioesterification assay, 2 min)", "setting": "[1]", "result": 50, "unit": "%"}]}, {"substance": "UBC domain of BIRC6 (residues 4520-4857) (from UniProt Q9NR09 4520-4857) (domain or fragment)", "values": [{"measurement": "Kd", "setting": "[2]", "result": 2410, "unit": "nM"}]}]}
